{"source": "paper PMC13254535", "about": "“The RecBCD complex interacts directly with the DNA sliding clamp in Escherichia coli” (Nucleic Acids Research, 2026)", "molecules": {"B1": {"name": "RecB: wild type RecB subunit of the E. coli RecBCD complex (T18 fusion, his-tagged or HaloTag according to test) (protein)", "chain": "MSDVAETLDPLRLPLQGERLIEASAGTGKTFTIAALYLRLLLGLGGSAAFPRPLTVEELLVVTFTEAATAELRGRIRSNIHELRIACLRETTDNPLYERLLEEIDDKAQAAQWLLLAERQMDEAAVFTIHGFCQRMLNLNAFESGMLFEQQLIEDESLLRYQACADFWRRHCYPLPREIAQVVFETWKGPQALLRDINRYLQGEAPVIKAPPPDDETLASRHAQIVARIDTVKQQWRDAVGELDALIESSGIDRRKFNRSNQAKWIDKISAWAEEETNSYQLPESLEKFSQRFLEDRTKAGGETPRHPLFEAIDQLLAEPLSIRDLVITRALAEIRETVAREKRRRGELGFDDMLSRLDSALRSESGEVLAAAIRTRFPVAMIDEFQDTDPQQYRIFRRIWHHQPETALLLIGDPKQAIYAFRGADIFTYMKARSEVHAHYTLDTNWRSAPGMVNSVNKLFSQTDDAFMFREIPFIPVKSAGKNQALRFVFKGETQPAMKMWLMEGESCGVGDYQSTMAQVCAAQIRDWLQAGQRGEALLMNGDDARPVRASDISVLVRSRQEAAQVRDALTLLEIPSVYLSNRDSVFETLEAQEMLWLLQAVMTPERENTLRSALATSMMGLNALDIETLNNDEHAWDVVVEEFDGYRQIWRKRGVMPMLRALMSARNIAENLLATAGGERRLTDILHISELLQEAGTQLESEHALVRWLSQHILEPDSNASSQQMRLESDKHLVQIVTIHKSKGLEYPLVWLPFITNFRVQEQAFYHDRHSFEAVLDLNAAPESVDLAEAERLAEDLRLLYVALTRSVWHCSLGVAPLVRRRGDKKGDTDVHQSALGRLLQKGEPQDAAGLRTCIEALCDDDIAWQTAQTGDNQPWQVNDVSTAELNAKTLQRLPGDNWRVTSYSGLQQRGHGIAQDLMPRLDVDAAGVASVVEEPTLTPHQFPRGASPGTFLHSLFEDLDFTQPVDPNWVREKLELGGFESQWEPVLTEWITAVLQAPLNETGVSLSQLSARNKQVEMEFYLPISEPLIASQLDTLIRQFDPLSAGCPPLEFMQVRGMLKGFIDLVFRHEGRYYLLDYKSNWLGEDSSAYTQQAMAAAMQAHRYDLQYQLYTLALHRYLRHRIADYDYEHHFGGVIYLFLRGVDKEHPQQGIYTTRPNAGLIALMDEMFAGMTLEEA", "modifications": "left off: T18 (Bordetella pertussis CyaA fragment), N-terminal, kept"}}, "key": {"[1]": {"test_system": "E. coli BTH101 ∆recB strain (IMR04)", "assay": "Ciprofloxacin survival assay (complementation of BTH101 ΔrecB)", "format": "cell-based, Escherichia coli", "settings": "expressed from pUT18C in BTH101 ΔrecB; ciprofloxacin 2–16 ng/ml, 2 h, 37°C; CFU; 2 to 3 biological replicates", "procedure": "Non-transformed BTH101 and BTH101 ∆recB served as positive and negative controls, respectively. All strains were cultured at 30°C to early exponential phase (OD600 around 0.2, measured by Nanodrop One) before treatment.\n. Cultures were incubated at 37°C with shaking for 2 h. Following treatment, cells were pelleted by centrifugation and resuspended in fresh LB medium to remove residual antibiotic and halt exposure. Cultures were then serially diluted 10-fold, and 5 µl of each dilution was spotted onto LB agar plates. After overnight incubation at 30°C, CFUs were counted. […]"}, "[2]": {"biological_target": "β-clamp (Escherichia coli, UniProt P0A988)", "sequence (P0A988 whole entry, the tested form may be a part)": "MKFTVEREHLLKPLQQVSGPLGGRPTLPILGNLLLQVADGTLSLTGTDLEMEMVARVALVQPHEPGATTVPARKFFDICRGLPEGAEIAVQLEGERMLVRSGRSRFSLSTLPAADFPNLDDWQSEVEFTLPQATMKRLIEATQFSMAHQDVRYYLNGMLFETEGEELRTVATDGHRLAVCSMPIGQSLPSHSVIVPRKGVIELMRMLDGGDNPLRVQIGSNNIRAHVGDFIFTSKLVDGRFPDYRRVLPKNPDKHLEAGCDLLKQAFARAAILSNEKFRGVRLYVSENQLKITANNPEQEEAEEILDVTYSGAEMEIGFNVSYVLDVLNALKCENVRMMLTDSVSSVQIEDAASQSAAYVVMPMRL", "description": "Protein–protein interactions between RecB and β-clamp, as well as between RecB and RecA, were examined using the bacterial adenylate cyclase-based two-hybrid (BACTH) system (Euromedex), as previously described, with optimizations noted below. This system relies on the functional reconstitution of Bordetella pertussis adenylate cyclase (CyaA) fragments T25 and T18, which are genetically fused to the proteins of interest. Upon interaction of the fusion partners, cAMP production is restored in the cyaA-deficient E. coli BTH101 strain, activating downstream reporters such as lacZ and mal operons. Co-transformants were tested using one or several of the following readouts: (i) qualitative X-gal spot assay, (ii) quantitative β-galactosidase assay, and (iii) semi-quantitative growth in M63 minimal medium with maltose.\nRecipient strains (BTH101 or derivatives) were streaked from glycerol stock onto LB agar plates containing streptomycin (100 µg/ml), isopropyl β-D-1-thiogalactopyranoside (IPTG) (0.5 mM), and 5-bromo-4-chloro-3-indolyl β-D-galactopyranoside (X-gal) (40 µg/ml) and incubated at 37°C until cya⁺ (blue) revertants became visible among the cya⁻ (white) colonies. Multiple white colonies were picked and cultured overnight in LB with streptomycin (100 µg/ml) at 37°C. These cultures were diluted 1:50 and expanded before electroporation.\nTransformed cells were immediately recovered in 1 ml SOC at 37°C for 1.5 h with shaking and plated on LB agar supplemented with appropriate antibiotics (Table 4). Plates were incubated at 30°C for up to 3 days.\nFollowing selection, 3–5 colonies from each transformation plate were pooled to inoculate 1 ml LB containing IPTG (0.5 mM) and the appropriate antibiotics. Cultures were incubated overnight at 30°C with shaking. The same overnight culture was used to seed all subsequent assays. The following day, cultures were diluted 1:100 into fresh LB (containing IPTG and antibiotics) and grown at 30°C to mid-exponential phase (OD600 around 0.5–0.6, measured by Nanodrop One, Thermo Fisher Scientific Inc.) before use in assays.\nThe X-gal spot assay was used to visualize protein−protein interactions via blue/white colorimetric readout. Mid-log cultures were serially diluted (10-fold series), and 5 µl of each dilution (including undiluted) was spotted onto LB agar containing IPTG (0.5 mM), X-gal (40 µg/ml), and selective antibiotics. To assess interaction stability under genotoxic stress, an identical plate was exposed to UV light (15 J/m^2). Plates were incubated at 30°C for 2–3 days, and images were captured with a smartphone camera.\nβ-galactosidase activity was quantified using a modified Miller assay adapted for 96-well format. Cultures at OD600 around 0.5–0.6 were measured again in a plate reader (Victor Nivo, PerkinElmer, Waltham, MA, USA) to account for instrument variability. Cells were pelleted, resuspended in PM2 buffer (70 mM Na2HPO4, 30 mM NaH2PO4, 1 mM MgSO4, 0.2 mM MnSO4, and 100 mM β-mercaptoethanol), and permeabilized with 0.01% (w/v) sodium dodecyl sulfate (SDS) and 10% (v/v) toluene for 45 min at 37°C. […] Absorbance at 405 nm was recorded, and β-galactosidase activity calculated in Miller Units using the following equation: […]\nThis assay exploits the cAMP dependence of the mal regulon, allowing only cya^+ cells with interacting fusion proteins to grow on maltose as sole carbon source. […] Cultures were incubated in triplicate at 30°C with shaking, and OD600 was measured at 24, 48, and 72 h using a plate reader. […]"}}, "note": "Like-named read-outs stand apart in the source and are kept apart here."}
{"molecule": "B1", "values": [{"measurement": "survival after ciprofloxacin", "setting": "[1]", "value": "fully restores ΔrecB strain survival to the wild-type strain (BTH101) level"}, {"measurement": "interaction strength relative to RecB–RecC positive control", "setting": "[2]", "value": "comparable to the RecB–RecC positive control interaction"}, {"measurement": "interaction with β-clamp, β-galactosidase activity", "setting": "[2]", "value": "abolished"}, {"measurement": "interaction with β-clamp, β-galactosidase activity", "setting": "[2]; BTH101 wild-type and ΔrecB backgrounds, 24 h, relative to empty vector negative control", "value": "distinct interaction"}, {"measurement": "interaction with β-clamp, β-galactosidase activity", "setting": "[2]; BTH101 ΔrecA", "value": "initially appeared absent"}, {"measurement": "interaction with β-clamp, M63/maltose growth", "setting": "[2]; BTH101 ΔrecA, M63/maltose variant, longer incubation", "value": "the interaction was apparent also in the ΔrecA strain"}]}
